We go through four molecules from patent US20240400675A1 (published 2024).

Substitutions are numbered along the chain they refer to. Where two headings read alike, the source gives them in different places.

One may read the EC50 as the concentration needed to bring the measured effect to its halfway point. A higher EC50 goes with a need for much substance.

Common to all, as to assay: flow cytometry, HEK293E cells
Test [1] concerns the target T1, human CLDN6 (UniProt P56747 1-220).
T1 chain: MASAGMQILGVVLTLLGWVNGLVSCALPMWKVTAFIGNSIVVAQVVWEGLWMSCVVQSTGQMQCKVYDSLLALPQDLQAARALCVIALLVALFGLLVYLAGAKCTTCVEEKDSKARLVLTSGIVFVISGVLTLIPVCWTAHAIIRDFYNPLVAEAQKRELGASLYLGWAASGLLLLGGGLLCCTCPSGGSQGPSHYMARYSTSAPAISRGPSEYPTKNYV

Test [2] has as its target T2, CLDN6 I143V isotype (UniProt P56747 1-220).
T2 chain: T1 chain with I143V

The target in test [3] is T3, human CLDN9 (UniProt O95484 1-217).
T3 chain: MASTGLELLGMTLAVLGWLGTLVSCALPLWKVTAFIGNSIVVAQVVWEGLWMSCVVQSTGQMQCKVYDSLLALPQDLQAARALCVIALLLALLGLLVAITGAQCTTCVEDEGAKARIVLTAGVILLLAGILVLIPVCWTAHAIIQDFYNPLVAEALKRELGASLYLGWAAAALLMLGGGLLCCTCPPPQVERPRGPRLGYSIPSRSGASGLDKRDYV

Test [4] deals with T1, human CLDN6.
For test [5], the target named is T4, mouse CLDN6 (mouse, UniProt Q9Z262 1-219).
T4 chain: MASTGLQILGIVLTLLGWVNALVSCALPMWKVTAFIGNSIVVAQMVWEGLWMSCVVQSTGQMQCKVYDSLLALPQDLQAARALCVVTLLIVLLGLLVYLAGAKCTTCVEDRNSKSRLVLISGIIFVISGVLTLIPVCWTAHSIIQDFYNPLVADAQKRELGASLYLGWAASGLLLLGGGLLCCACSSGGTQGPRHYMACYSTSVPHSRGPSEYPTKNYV

Test [6] addresses T5, cyno CLDN6.
T5 chain: T1 chain with Q191R

Test [7] addresses T1, human CLDN6.
Test [8] concerns the target T4, mouse CLDN6.
Test [9] addresses T5, cyno CLDN6.
In test [10] the target is T1, human CLDN6.
In test [11] the target is T2, CLDN6 I143V isotype.
In test [12] the target is T3, human CLDN9.

B1: XENP34637 (C6-30_H2L1 x CD3 bsAb in the 1+1 Fab-scFv-Fc format) (bispecific antibody)
heavy: EVQLVQSGAEVKKPGESLRISCKTSGYTFTEYTMHWVRQMPGKSLEWMGGIDPNNGNTHYNQKFQGHVTISVDKSISTAYLQWSSLKASDTAMYYCARIYYFGRLYFDFWGAGTLVTVSSASTKGPSVFPLAPSSKSTSGGTAALGCLVKDYFPEPVTVSWNSGALTSGVHTFPAVLQSSGLYSLSSVVTVPSSSLGTQTYICNVNHKPSDTKVDKKVEPKSCDKTHTCPPCPAPPVAGPSVFLFPPKPKDTLMISRTPEVTCVVVDVKHEDPEVKFNWYVDGVEVHNAKTKPREEEYNSTYRVVSVLTVLHQDWLNGKEYKCKVSNKALPAPIEKTISKAKGQPREPQVYTLPPSREEMTKNQVSLTCDVSGFYPSDIAVEWESDGQPENNYKTTPPVLDSDGSFFLYSKLTVDKSRWEQGDVFSCSVMHEALHNHYTQKSLSLSPGK
scFv-Fc: not shown
light: not shown
For the molecule B1, the 50% effective concentration (EC50) in the test with human CLDN6 [1] amounted to 20.6 µg/mL; with CLDN6 I143V isotype [2], 12.9 µg/mL; with human CLDN9 [3], 137 µg/mL; in the test with human CLDN6 [4], 2.38 µg/mL; in the test with mouse CLDN6 [5], 6.71 µg/mL; in the test with cyno CLDN6 [6], 3.19 µg/mL.

B2: XENP34638 (C6-30_H2L1 x CD3 bsAb in the 2+1 Fab2-scFv-Fc format) (bispecific antibody)
heavy 1: B1 heavy
heavy 2: EVQLVQSGAEVKKPGESLRISCKTSGYTFTEYTMHWVRQMPGKSLEWMGGIDPNNGNTHYNQKFQGHVTISVDKSISTAYLQWSSLKASDTAMYYCARIYYFGRLYFDFWGAGTLVTVSSASTKGPSVFPLAPSSKSTSGGTAALGCLVKDYFPEPVTVSWNSGALTSGVHTFPAVLQSSGLYSLSSVVTVPSSSLGTQTYICNVNHKPSNTKVDKKVEPKSCGGGGSGGGGSQAVVTQEPSLTVSPGGTVTLTCGSSTGAVTTSNYANWVQQKPGKSPRGLIGGTNKRAPGVPARFSGSLLGGKAALTISGAQPEDEADYYCALWYSNHWVFGGGTKLTVLGKPGSGKPGSGKPGSGKPGSEVQLVESGGGLVQPGGSLRLSCAASGFTFSTYAMNWVRQAPGKGLEWVGRIRSKYNNYATYYADSVKGRFTISRDDSKNTLYLQMNSLRAEDTAVYYCVRHGNFGDSYVSWFAYWGQGTLVTVSSGGGGSGGGGSKTHTCPPCPAPPVAGPSVFLFPPKPKDTLMISRTPEVTCVVVDVKHEDPEVKFNWYVDGVEVHNAKTKPREEQYNSTYRVVSVLTVLHQDWLNGKEYKCKVSNKALPAPIEKTISKAKGQPREPQVYTLPPSREQMTKNQVKLTCLVKGFYPSDIAVEWESNGQPENNYKTTPPVLDSDGSFFLYSKLTVDKSRWQQGNVFSCSVMHEALHNHYTQKSLSLSPGK
light: not shown
For B2, the half-maximal effective concentration (EC50) in the test with human CLDN6 [1] was found to be 0.435 µg/mL; with CLDN6 I143V isotype [2], 0.2 µg/mL; with human CLDN9 [3], 11.2 µg/mL; in the test with human CLDN6 [4], 0.244 µg/mL; in the test with mouse CLDN6 [5], 0.588 µg/mL; in the test with cyno CLDN6 [6], 0.267 µg/mL.

B3: XENP34233 (C6-30_H1L1 x CD3 bsAb in the 2+1 Fab2-scFv-Fc format) (bispecific antibody)
heavy 1: QVQLVQSGAEVKKPGASVKVSCKTSGYTFTEYTMHWVRQAPGQSLEWMGGIDPNNGNTHYNQKFQGRVTITVDKSASTAYMELSSLRSEDTAVYYCARIYYFGRLYFDFWGAGTLVTVSSASTKGPSVFPLAPSSKSTSGGTAALGCLVKDYFPEPVTVSWNSGALTSGVHTFPAVLQSSGLYSLSSVVTVPSSSLGTQTYICNVNHKPSDTKVDKKVEPKSCDKTHTCPPCPAPPVAGPSVFLFPPKPKDTLMISRTPEVTCVVVDVKHEDPEVKFNWYVDGVEVHNAKTKPREEEYNSTYRVVSVLTVLHQDWLNGKEYKCKVSNKALPAPIEKTISKAKGQPREPQVYTLPPSREEMTKNQVSLTCDVSGFYPSDIAVEWESDGQPENNYKTTPPVLDSDGSFFLYSKLTVDKSRWEQGDVFSCSVMHEALHNHYTQKSLSLSPGK
heavy 2: QVQLVQSGAEVKKPGASVKVSCKTSGYTFTEYTMHWVRQAPGQSLEWMGGIDPNNGNTHYNQKFQGRVTITVDKSASTAYMELSSLRSEDTAVYYCARIYYFGRLYFDFWGAGTLVTVSSASTKGPSVFPLAPSSKSTSGGTAALGCLVKDYFPEPVTVSWNSGALTSGVHTFPAVLQSSGLYSLSSVVTVPSSSLGTQTYICNVNHKPSNTKVDKKVEPKSCGGGGSGGGGSQAVVTQEPSLTVSPGGTVTLTCGSSTGAVTTSNYANWVQQKPGKSPRGLIGGTNKRAPGVPARFSGSLLGGKAALTISGAQPEDEADYYCALWYSNHWVFGGGTKLTVLGKPGSGKPGSGKPGSGKPGSEVQLVESGGGLVQPGGSLRLSCAASGFTFSTYAMNWVRQAPGKGLEWVGRIRSKYNNYATYYADSVKGRFTISRDDSKNTLYLQMNSLRAEDTAVYYCVRHGNFGDSYVSWFAYWGQGTLVTVSSGGGGSGGGGSKTHTCPPCPAPPVAGPSVFLFPPKPKDTLMISRTPEVTCVVVDVKHEDPEVKFNWYVDGVEVHNAKTKPREEQYNSTYRVVSVLTVLHQDWLNGKEYKCKVSNKALPAPIEKTISKAKGQPREPQVYTLPPSREQMTKNQVKLTCLVKGFYPSDIAVEWESNGQPENNYKTTPPVLDSDGSFFLYSKLTVDKSRWQQGNVFSCSVMHEALHNHYTQKSLSLSPGK
light: not shown
For the molecule B3, the EC50 with human CLDN6 [7] is 0.224 µg/mL; in the test with mouse CLDN6 [8], 0.664 µg/mL; with cyno CLDN6 [9], 0.316 µg/mL; with human CLDN6 [10], 0.359 µg/mL; with CLDN6 I143V isotype [11] it was 0.329 µg/mL; with human CLDN9 [12] it was 6.73 µg/mL.

B4: XENP34229 (C6-30_H1L1 x CD3 bsAb in the 1+1 Fab-scFv-Fc format) (bispecific antibody)
heavy: B3 heavy 1
scFv-Fc: QAVVTQEPSLTVSPGGTVTLTCGSSTGAVTTSNYANWVQQKPGKSPRGLIGGTNKRAPGVPARFSGSLLGGKAALTISGAQPEDEADYYCALWYSNHWVFGGGTKLTVLGKPGSGKPGSGKPGSGKPGSEVQLVESGGGLVQPGGSLRLSCAASGFTFSTYAMNWVRQAPGKGLEWVGRIRSKYNNYATYYADSVKGRFTISRDDSKNTLYLQMNSLRAEDTAVYYCVRHGNFGDSYVSWFAYWGQGTLVTVSSEPKSSDKTHTCPPCPAPPVAGPSVFLFPPKPKDTLMISRTPEVTCVVVDVKHEDPEVKFNWYVDGVEVHNAKTKPREEQYNSTYRVVSVLTVLHQDWLNGKEYKCKVSNKALPAPIEKTISKAKGQPREPQVYTLPPSREQMTKNQVKLTCLVKGFYPSDIAVEWESNGQPENNYKTTPPVLDSDGSFFLYSKLTVDKSRWQQGNVFSCSVMHEALHNHYTQKSLSLSPGK
light: not shown
With B4, the EC50 was 3.48 µg/mL in the test with human CLDN6 [7]; 12 µg/mL in the test with mouse CLDN6 [8]; 5.65 µg/mL with cyno CLDN6 [9]; 6.49 µg/mL with human CLDN6 [10]; 5.58 µg/mL with CLDN6 I143V isotype [11]; 78.8 µg/mL with human CLDN9 [12].
